Patent US20240182536A1 (MURAL ONCOLOGY, published 2024)
Residue numbers refer to the chain shown, from its start. Names may count otherwise.

B1: Comparator 5 (ligand)
chain: HFGRLHCTTAVIRNINDQVLFVDKRQPVFEDMTDIDQSASEPQTRLIIYAYGDSRARGKAVTLSVKDSKMSTLSCKNKIISFEEMDPPENIDDIQSDLIFFQKRVPGHNKMEFESSLYEGHFLACQKEDDAFKLILKKKDENGDKSVMFTLTNLHQS
B2: IL-18 variant G3T, M60K (ligand)
chain: YFTKLESKLSVIRNLNDQVLFIDQGNRPLFEDMTDSDMRDNAPRTIFIISMYKDSQPRGKAVTISVKSEKISTLSSENKIISFKEMNPPDNIKDTKSDIIFFQRSVPGHDNKMQFESSSYEGYFLASEKERDLFKLILKKEDELGDRSIMFTVQNED
B3: mouse IL-18 G3T, H6K, K52A on monoFc scaffold (Fc fusion, not shown: small tags and cut ends)
chain: NFTRLKSTTAVIRNINDQVLFVDKRQPVFEDMTDIDQSASEPQTRLIIYMYADSEVRGLAVTLSVKDSKMSTLSSKNKIISFEEMDPPENIDDIQSDLIFFQKRVPGHNKMEFESSLYEGHFLACQKEDDAFKLILKKKDENGDKSVMFTLTNLHQSNGGPSVFLFPPKPKDTLMISRTPEVTCVVVDVSHEDPEVKFNWYVDGVEVHNAKTKPREEQYNSTYRVVSVLTVLHQDWLNGKEYKCKVSNKALPAPIEKTISKAKGQPREPQVYTLPPSREEMTKNQVNLTCLVKGFYPSDIAVEWESNGQPENNYKTTPPVLDSDGSFFLNSTLTVDKSRWQQGNVFSCSVMHEALHNHYTQKSLSLS
B4: mouse IL-18 G3V, K52A on monoFc scaffold (Fc fusion, not shown: small tags and cut ends)
chain: B3 chain with T3V, K6H
B5: mouse IL-18 G3V, H6K, K52A on monoFc scaffold (Fc fusion, not shown: small tags and cut ends)
chain: B3 chain with T3V
B6: mouse IL-18 G3T, K52A on monoFc scaffold (Fc fusion, not shown: small tags and cut ends)
chain: B3 chain with K6H

Assays:
[1] = target: T1, mouse IL-18 receptors on PathHunter U2OS mIL18-NF-kb reporter cells (mouse, UniProt Q61098 20-537; Q9Z2B1 20-614); assay: cell-based or functional assay
T1 sequence (looked up) 1: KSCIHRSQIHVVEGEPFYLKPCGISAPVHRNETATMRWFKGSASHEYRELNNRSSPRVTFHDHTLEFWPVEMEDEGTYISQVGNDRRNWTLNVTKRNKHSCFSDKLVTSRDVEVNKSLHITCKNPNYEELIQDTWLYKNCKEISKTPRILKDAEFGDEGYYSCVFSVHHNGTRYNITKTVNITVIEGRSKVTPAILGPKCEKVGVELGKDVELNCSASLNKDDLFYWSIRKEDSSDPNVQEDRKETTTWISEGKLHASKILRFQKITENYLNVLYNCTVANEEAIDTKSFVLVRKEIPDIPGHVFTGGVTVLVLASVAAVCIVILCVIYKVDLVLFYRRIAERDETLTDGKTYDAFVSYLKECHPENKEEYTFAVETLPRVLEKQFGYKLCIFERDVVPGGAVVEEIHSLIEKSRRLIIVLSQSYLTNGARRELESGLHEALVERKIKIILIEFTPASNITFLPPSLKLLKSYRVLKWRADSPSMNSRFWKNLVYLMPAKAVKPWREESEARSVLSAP
T1 sequence (looked up) 2: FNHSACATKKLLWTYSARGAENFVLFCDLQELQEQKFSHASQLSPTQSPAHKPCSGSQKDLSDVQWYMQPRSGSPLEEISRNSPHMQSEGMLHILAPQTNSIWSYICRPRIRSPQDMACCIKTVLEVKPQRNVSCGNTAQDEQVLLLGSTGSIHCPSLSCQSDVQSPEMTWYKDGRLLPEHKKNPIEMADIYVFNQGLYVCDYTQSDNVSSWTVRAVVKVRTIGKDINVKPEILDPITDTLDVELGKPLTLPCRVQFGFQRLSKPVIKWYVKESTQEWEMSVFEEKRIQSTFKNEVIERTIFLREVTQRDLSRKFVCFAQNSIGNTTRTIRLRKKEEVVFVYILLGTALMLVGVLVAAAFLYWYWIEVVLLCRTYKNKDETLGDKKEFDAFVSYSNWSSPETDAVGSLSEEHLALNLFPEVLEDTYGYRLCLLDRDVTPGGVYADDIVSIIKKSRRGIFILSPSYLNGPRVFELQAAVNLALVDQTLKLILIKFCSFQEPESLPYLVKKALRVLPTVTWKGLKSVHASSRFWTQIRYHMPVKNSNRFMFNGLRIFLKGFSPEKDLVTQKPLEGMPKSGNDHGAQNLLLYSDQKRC

[2] = target: T2, mouse IL-18 binding protein (mouse, UniProt Q9Z0M9 29-193); assay: cell-based or functional assay
T2 sequence (looked up): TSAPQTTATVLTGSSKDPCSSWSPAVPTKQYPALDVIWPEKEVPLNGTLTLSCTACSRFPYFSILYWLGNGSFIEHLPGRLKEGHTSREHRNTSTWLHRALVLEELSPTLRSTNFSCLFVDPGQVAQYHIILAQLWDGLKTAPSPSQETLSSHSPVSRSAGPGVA

[3] = target: T3, human IL-18 binding protein (IL-18BP) (human, UniProt O95998 31-194); assay: cell-based or functional assay
T3 sequence (looked up): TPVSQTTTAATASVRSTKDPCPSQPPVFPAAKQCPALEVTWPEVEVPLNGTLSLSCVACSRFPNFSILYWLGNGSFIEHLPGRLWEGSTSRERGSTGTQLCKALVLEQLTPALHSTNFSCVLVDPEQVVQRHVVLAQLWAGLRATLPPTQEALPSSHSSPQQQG

[4] = target: T4, IL-18 receptors on HEK-Blue IL-18 reporter cells (InvivoGen) (UniProt Q13478 19-541; O95256 20-599); assay: cell-based or functional assay
T4 sequence (looked up) 1: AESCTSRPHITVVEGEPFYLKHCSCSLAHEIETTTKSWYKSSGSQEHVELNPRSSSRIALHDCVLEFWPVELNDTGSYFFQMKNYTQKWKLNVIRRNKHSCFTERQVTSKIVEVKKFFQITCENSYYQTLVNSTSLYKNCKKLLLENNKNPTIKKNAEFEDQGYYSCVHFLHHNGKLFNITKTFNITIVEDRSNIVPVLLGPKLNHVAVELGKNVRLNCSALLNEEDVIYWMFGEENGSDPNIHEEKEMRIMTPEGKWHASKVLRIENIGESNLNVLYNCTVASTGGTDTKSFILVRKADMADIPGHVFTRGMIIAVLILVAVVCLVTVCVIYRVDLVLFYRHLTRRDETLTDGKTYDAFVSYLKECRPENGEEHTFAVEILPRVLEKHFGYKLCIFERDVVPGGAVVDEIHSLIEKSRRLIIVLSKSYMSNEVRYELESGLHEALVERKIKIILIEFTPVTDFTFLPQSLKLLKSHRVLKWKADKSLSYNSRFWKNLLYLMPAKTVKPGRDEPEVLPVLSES
T4 sequence (looked up) 2: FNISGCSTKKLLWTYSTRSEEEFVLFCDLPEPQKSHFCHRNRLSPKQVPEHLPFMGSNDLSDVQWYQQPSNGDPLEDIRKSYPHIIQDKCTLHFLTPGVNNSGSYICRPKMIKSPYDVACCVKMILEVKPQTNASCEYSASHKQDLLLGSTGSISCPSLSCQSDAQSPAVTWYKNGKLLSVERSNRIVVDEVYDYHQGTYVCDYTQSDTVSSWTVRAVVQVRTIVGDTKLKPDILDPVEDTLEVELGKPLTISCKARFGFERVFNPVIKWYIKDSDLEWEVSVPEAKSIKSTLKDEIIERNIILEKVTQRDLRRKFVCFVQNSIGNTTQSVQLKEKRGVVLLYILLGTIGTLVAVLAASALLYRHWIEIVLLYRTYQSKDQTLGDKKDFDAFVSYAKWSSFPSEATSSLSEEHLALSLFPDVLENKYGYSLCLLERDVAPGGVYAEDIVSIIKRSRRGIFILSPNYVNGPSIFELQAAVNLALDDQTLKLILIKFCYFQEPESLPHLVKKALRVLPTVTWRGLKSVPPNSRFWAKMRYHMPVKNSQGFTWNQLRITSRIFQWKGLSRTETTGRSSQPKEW

[5] = target: T3, human IL-18 binding protein (IL-18BP); assay: cell-based or functional assay; remark: listed apart in the source
[6] = target: T4, IL-18 receptors on HEK-Blue IL-18 …; assay: cell-based or functional assay; remark: listed apart in the source
[7] = target: T5, IL-18 receptor (IL-18Rα and IL-18Rβ) (UniProt Q13478 19-541; O95256 20-599, limits assumed); assay: cell-based or functional assay
T5 sequence (looked up) 1: T4 sequence (looked up) 1
T5 sequence (looked up) 2: T4 sequence (looked up) 2

[8] = target: T3, human IL-18 binding protein (IL-18BP); assay: cell-based or functional assay; remark: listed apart in the source
[9] = target: T6, human IL-18 receptor alpha (IL-18Rα) (human, UniProt Q13478 19-329, limits assumed); assay: Octet BLI
T6 construct: also called hu IL-18Ra; IL-18R alpha
T6 sequence (looked up): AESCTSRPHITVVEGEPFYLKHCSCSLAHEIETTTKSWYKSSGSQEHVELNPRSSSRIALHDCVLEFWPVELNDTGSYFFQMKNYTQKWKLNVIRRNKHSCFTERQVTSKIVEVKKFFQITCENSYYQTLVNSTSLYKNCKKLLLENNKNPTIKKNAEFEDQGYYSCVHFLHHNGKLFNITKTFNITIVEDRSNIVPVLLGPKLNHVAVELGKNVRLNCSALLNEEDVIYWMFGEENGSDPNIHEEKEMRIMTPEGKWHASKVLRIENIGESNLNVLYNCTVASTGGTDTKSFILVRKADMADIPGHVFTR
Description: (§1) Octet 96red instrument was used to determine affinities of IL18 proteins to BP or receptors. 5-10 ug/ml analyte proteins were used for loading on Sartorius tips (AHC or SA). […] 120-180 s loading, 200 s association and 800 s dissociation were used for kinetics. 3-7 data points were used to calculate affinities.

[10] = target: T3, human IL-18 binding protein (IL-18BP); assay: Octet BLI
Description: as §1

[11] = target: T7, human IL-18R alpha/beta pair (IL-18Rab) (human, UniProt Q13478 19-329; O95256 20-356); assay: Octet BLI
T7 construct: also called hu IL-18Rab
T7 sequence (looked up) 1: T6 sequence (looked up)
T7 sequence (looked up) 2: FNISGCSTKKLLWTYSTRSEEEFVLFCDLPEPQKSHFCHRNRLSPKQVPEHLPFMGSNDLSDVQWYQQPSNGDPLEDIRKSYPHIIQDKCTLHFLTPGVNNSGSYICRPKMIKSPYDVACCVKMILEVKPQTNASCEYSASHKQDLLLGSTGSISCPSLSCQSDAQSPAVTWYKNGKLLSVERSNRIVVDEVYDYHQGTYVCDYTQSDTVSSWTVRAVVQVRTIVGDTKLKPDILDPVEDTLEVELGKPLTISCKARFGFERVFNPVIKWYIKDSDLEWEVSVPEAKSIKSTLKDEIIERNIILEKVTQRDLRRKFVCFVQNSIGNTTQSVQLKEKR
Description: as §1

[12] = target: T8, mouse IL-18 receptor alpha (mouse, UniProt Q61098 20-326, limits assumed); assay: Octet BLI, monoFc scaffold
T8 construct: also called Mouse IL18Ra; mouse IL-18R alpha
T8 sequence (looked up): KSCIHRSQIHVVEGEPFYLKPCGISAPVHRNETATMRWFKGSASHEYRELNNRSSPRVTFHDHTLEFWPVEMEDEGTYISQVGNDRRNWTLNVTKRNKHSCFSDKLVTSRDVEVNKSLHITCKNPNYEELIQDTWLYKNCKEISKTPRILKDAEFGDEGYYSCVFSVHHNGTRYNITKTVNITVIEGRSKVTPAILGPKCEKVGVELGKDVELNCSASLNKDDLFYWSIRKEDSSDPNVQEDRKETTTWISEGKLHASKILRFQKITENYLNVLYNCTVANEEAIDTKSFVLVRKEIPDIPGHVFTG
Description: as §1
(§2) Several mouse variants were next tested for binding affinity to mouse IL-18R alpha and mouse IL-18BP.

[13] = target: T2, mouse IL-18 binding protein; assay: Octet BLI, monoFc scaffold
Description: as §1, §2

Binder | mouse IL-18 reporter assay EC50, without mouse IL-18BP [1] [nM] | mouse IL-18 reporter assay EC50, +Mouse IL-18BP 50 nM [2] [nM] | Kd [12] [nM] | Kd [13] [nM] | other results
B1 | 0.00149 | 0.00091 | – | – | –
B2 | – | – | – | – | Fold Change (BP/NO BP), 50 nM BP [3]: 0.99 fold; Fold Change (BP/NO BP), 300 nM BP [3]: 3.14 fold; HEK-Blue EC50 pM, +50 nM BP [3]: 0.7 pM; HEK-blue EC50 (pM) + 300 nM BP [3]: 2.4 pM; HEK-Blue EC50 pM, NO BP (50 nM BP run) [4]: 0.71 pM; HEK-Blue EC50 pM, NO BP (300 nM BP run) [4]: 0.76 pM; HEK-Blue Activity Assay Ec50 (pM), +300 nM hu IL-18BP [5]: 2.4 pM; HEK-Blue Activity Assay Ec50 (pM), -hu IL-18BP [6]: 0.76 pM; EC50 pM, IFN gamma expression in PBMCs, no BP [7]: 214 pM; EC50 pM, IFN gamma expression in PBMCs, + 300 nM BP [8]: 117 pM; Kd [9]: 555 nM; Kd [10]: 779 nM; Kd [11]: 0.02 nM
B3 | 0.00176 | 0.00169 | 42.7 | 78 | –
B4 | 0.0007 | 0.0364 | 8.85 | 2 | –
B5 | 0.0009 | 0.00486 | 4.85 | 14 | –
B6 | 0.00124 | 0.0208 | 97 | 11 | –
